Values quoted from earlier work, collected in paper PMC4618378.

Legend:
[1] = biological target: cone PDE6 gamma-subunit (Homo sapiens) (UniProt Q13956)
[2] = biological target: rod PDE6 gamma-subunit (Homo sapiens) (UniProt P18545)
UniProt P18545, sequence (P18545 whole entry): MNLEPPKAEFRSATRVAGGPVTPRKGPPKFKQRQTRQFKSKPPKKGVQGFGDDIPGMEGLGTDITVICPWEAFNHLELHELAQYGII

UniProt Q13956, sequence (Q13956 whole entry): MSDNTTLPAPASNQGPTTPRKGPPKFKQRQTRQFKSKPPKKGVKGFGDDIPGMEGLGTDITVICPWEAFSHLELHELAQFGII

## PDE6C (from UniProt P51160)
[1]
  Ki: 0.078 nM
[2]
  Ki: 0.155 nM
